Drawing on patent publication US20220227872A1 (published 2022), this text covers Kd for two molecules.

One assay concerns the target 1C1 BiTE. The assay can be described thus: SPR; BiTE analyte, hTEM1-SpyC immobilized. (In general: SPR reads the build-up and loss of mass on a sensor chip optically.)
Assay [1] addresses T1, hTEM1-SpyC (human TEM1 extracellular domain fused to SpyCatcher) (UniProt Q9HCU0 18-687, covalently bound to biotinylated SpyTag peptide (bSpyT)).
T1 chain: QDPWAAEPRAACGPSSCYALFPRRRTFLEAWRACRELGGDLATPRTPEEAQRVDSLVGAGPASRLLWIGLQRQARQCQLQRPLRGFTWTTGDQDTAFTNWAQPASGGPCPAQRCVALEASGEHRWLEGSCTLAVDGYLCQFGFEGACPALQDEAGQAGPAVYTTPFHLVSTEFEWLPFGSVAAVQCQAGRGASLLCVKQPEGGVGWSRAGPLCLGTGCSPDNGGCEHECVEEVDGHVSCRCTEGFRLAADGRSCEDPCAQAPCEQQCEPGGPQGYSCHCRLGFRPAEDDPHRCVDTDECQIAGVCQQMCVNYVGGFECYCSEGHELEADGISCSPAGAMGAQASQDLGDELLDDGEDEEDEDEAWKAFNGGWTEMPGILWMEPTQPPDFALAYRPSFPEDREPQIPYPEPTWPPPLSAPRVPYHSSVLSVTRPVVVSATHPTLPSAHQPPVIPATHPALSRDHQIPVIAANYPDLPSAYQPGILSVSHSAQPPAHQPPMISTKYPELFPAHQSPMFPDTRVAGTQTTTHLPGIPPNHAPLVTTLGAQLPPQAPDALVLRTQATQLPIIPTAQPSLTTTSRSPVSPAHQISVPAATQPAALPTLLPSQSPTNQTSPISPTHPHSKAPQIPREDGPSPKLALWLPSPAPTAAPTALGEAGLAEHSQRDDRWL
The assay can be described thus: SPR; BiTE analyte, hTEM1-SpyC immobilized.

B1: hTEM1-SpyC (other)
chain: T1 chain
modifications: covalently bound to biotinylated SpyTag peptide (bSpyT)
In turn, B1 had a Kd with 1C1 BiTE of around 68 nM.

B2: 1C1mut BiTE (1C1mut scFv fused to an scFv derived from anti-CD3 clone UCHT1) (bispecific antibody, V domains shown)
VH: QVQLVQSGAEVKKPGSSVKVSCKASGGTFSSYAISWVRQAPGQGLEWMGGIIPIFGTANYAQKFQGRVTITADKSTSTAYMELSSLRSEDTAVYYCASLISYYGDPTGFDYWGQGTLVTVSS
VL: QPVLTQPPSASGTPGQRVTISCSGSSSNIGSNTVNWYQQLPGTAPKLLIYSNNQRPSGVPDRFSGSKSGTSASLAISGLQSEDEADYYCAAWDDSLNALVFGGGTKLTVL
In assay [1], B2 came in with a Kd of around 1 nM.

As usually defined, the Kd is the equilibrium constant for the complex coming apart. A lower Kd goes with tighter binding.
